These results are taken from the Immune Epitope Database (IEDB).

For orientation: pKd means −log10 of the Kd, conventionally taken in molar units.

Assay [1] deals with HLA-A*01:01. Kind of assay: IEDB peptide-MHC binding, purified MHC/direct/fluorescence; filed as Kd, often an IC50 or EC50 that approximates it; ≥ and ≤ were set here for values at or beyond the usual limits of such assays.
The target in assay [2] is HLA-A*02:01. Described as above.
For assay [3], the target named is HLA-A*03:01. The assay is described as above.
The target in assay [4] is HLA-A*11:01. Described as above.
Assay [5] concerns the target HLA-A*26:01. Described as above.
Assay [6] has as its target HLA-A*31:01. The description is as above.
Assay [7] deals with HLA-A*69:01. The description is as above.
Assay [8] deals with HLA-B*07:02. The assay is described as above.
Assay [9] addresses HLA-B*08:01. The description is as above.
Assay [10] addresses HLA-B*15:01. The assay is described as above.
Assay [11] deals with HLA-B*27:05. The description is as above.
The target in assay [12] is HLA-B*35:01. The assay is described as above.
Assay [13] has as its target HLA-B*40:01. Described as above.
Assay [14] addresses HLA-B*44:02. Described as above.
Assay [15] has as its target HLA-B*58:01. Described as above.
For assay [16], the target named is HLA-B*15:03. The experiment in a line: IEDB peptide-MHC binding, purified MHC/competitive/radioactivity; filed as Kd, often an IC50 or EC50 that approximates it; ≥ and ≤ were set here for values at or beyond the usual limits of such assays. Particulars: source organism: Vaccinia virus WR.
The target of assay [17] is HLA-B*27:05. Kind of assay: IEDB peptide-MHC binding, purified MHC/competitive/fluorescence; filed as Kd, often an IC50 or EC50 that approximates it; ≥ and ≤ were set here for values at or beyond the usual limits of such assays.
For assay [18], the target named is HLA-B*07:02. The assay is described as above.
Assay [19] has as its target HLA-B*15:42. The assay is described as above. The conditions noted are these: source organism: Yersinia pestis Nepal516.
For assay [20], the target named is HLA-B*35:01. The assay is described as above. The conditions noted are these: source organism: Yersinia pestis Nepal516.
The target of assay [21] is HLA-B*45:06. The assay is described as above. The conditions noted are these: source organism: Yersinia pestis Nepal516.
For assay [22], the target named is HLA-B*51:01. Described as above. The conditions noted are these: source organism: Yersinia pestis Nepal516.
Assay [23] deals with HLA-B*83:01. Described as above. Particulars: source organism: Yersinia pestis Nepal516.
Assay [24] deals with HLA-A*32:01. Kind of assay: IEDB peptide-MHC binding, purified MHC/competitive/radioactivity; filed as Kd, often an IC50 or EC50 that approximates it; ≥ and ≤ were set here for values at or beyond the usual limits of such assays. The conditions noted are these: source organism: Vaccinia virus WR.
Assay [25] deals with HLA-B*15:01. The assay is described as above. Particulars: source organism: Vaccinia virus WR.
Assay [26] addresses HLA-A*30:01. Described as above. The conditions noted are these: source organism: Vaccinia virus WR.
The target in assay [27] is HLA-B*08:01. The description is as above. The conditions noted are these: source organism: Vaccinia virus WR.
Assay [28] concerns the target HLA-A*24:03. The experiment in a line: IEDB peptide-MHC binding, purified MHC/direct/fluorescence; filed as Kd, often an IC50 or EC50 that approximates it; ≥ and ≤ were set here for values at or beyond the usual limits of such assays.
Assay [29] addresses HLA-A*30:01. The assay is described as above. Particulars: source organism: Salmonella enterica subsp. enterica serovar Typhi.
The mark [30] stands for this setting: source organism: Giardia lamblia ATCC 50803.
Where [31] appears, read: source organism: Vibrio vulnificus.
Where [32] appears, read: source organism: Salmonella enterica.
The mark [33] stands for this setting: source organism: Salmonella enterica subsp. enterica serovar Typhi.
Setting [34] is: source organism: Vibrio parahaemolyticus.
[35] abbreviates: source organism: Brucella abortus 2308.
The mark [36] stands for this setting: source organism: Brucella melitensis.

pKd: −log10 of the molar value.

As for YQYGDNLIL, the pKd was no more than 4.70 in assay [1] (setting [30]); 7.66 in assay [2] (setting [30]); no more than 4.70 in [3] (setting [30]); no more than 4.70 in [4] (setting [30]); no more than 4.70 in assay [5] (setting [30]); no more than 4.70 in assay [6] (setting [30]). Further, the pKd in assay [7] (setting [30]) is no more than 4.70; in [8] (setting [30]), no more than 4.70; in [9] (setting [30]), no more than 4.70; in [10] (setting [30]) it was 7.05; in assay [11] (setting [30]) it was 6.37; in assay [12] (setting [30]) it was 6.39. Further, the pKd in assay [13] (setting [30]) is 7.11; in [14] (setting [30]), no more than 4.70; in assay [15] (setting [30]), no more than 4.70.
Turning to ALVITINYF, the pKd in [16] was 6.18.
Turning to YRLFKHGLK, the pKd in assay [17] (source organism: Influenza A virus (A/Memphis/1/1978(H1N1))) is 6.66.
Regarding AKTSTLIFF, the pKd in assay [16] is 8.81.
Turning to ILVNQYSHM, the pKd in [16] was 7.43.
MPAIFFSIV: the pKd in assay [18] (source organism: Yersinia pestis Nepal516) was 7.08; in assay [19] it was no more than 5.30; in assay [20] it was 8.92; in assay [21] it was no more than 5.30; in assay [22], 5.88; in assay [23], 6.19.
As for GRVTVSTKR, the pKd in assay [17] (source organism: Influenza A virus) is 6.26.
Turning to EEVWRDPYL, the pKd in [1] (setting [31]), in assay [2] (setting [31]), in assay [3] (setting [31]), in [4] (setting [31]), in assay [5] (setting [31]) and in assay [6] (setting [31]) was no more than 4.70 throughout. Also, the pKd is no more than 4.70 in assay [7] (setting [31]); no more than 4.70 in assay [8] (setting [31]); no more than 4.70 in assay [9] (setting [31]); no more than 4.70 in assay [10] (setting [31]); no more than 4.70 in assay [11] (setting [31]); 7.62 in [12] (setting [31]). The sequence further had a pKd in assay [15] (setting [31]) of no more than 4.70.
KIYNVTNPF: the pKd in [24] was 8.37; in [25], 8.57; in assay [16] it was 8.12.
For FAAVEGIFF, the pKd in [16] was 6.51.
Regarding TSNWTGNYF, the pKd is 5.64 in [26]; 4.94 in assay [24]; 4.81 in [27]; 5.11 in [25]; 6.05 in [16].
On to EHFYWGSVF, for which the pKd is no more than 4.70 in assay [1] (setting [32]); no more than 4.70 in assay [2] (setting [32]); no more than 4.70 in assay [3] (setting [32]); 5.10 in assay [4] (setting [33]); 6.50 in assay [28] (setting [33]); no more than 4.70 in assay [5] (setting [32]). For the same sequence, the pKd in assay [29] is 4.72; in assay [6] (setting [32]) it was no more than 4.70; in assay [7] (setting [32]), no more than 4.70; in assay [9] (setting [32]), no more than 4.70; in assay [10] (setting [33]) it was 5.72; in assay [11] (setting [32]) it was no more than 4.70. Further, the figures for the pKd in assay [12] (setting [33]), in assay [13] (setting [32]) and in assay [15] (setting [32]) were 6.37, no more than 4.70 and no more than 4.70, respectively.
ILAPNPNRF: the pKd in [16] is 7.58.
LPACVYGLAV gave a pKd in assay [18] (source organism: Influenza A virus (A/parakeet/Narita/92A/98(H9N2))) of 7.40.
Regarding YREAGIPVL, the pKd in assay [1] (setting [34]), in [2] (setting [34]), in assay [3] (setting [34]), in assay [4] (setting [34]), in assay [5] (setting [34]) and in [6] (setting [34]) was no more than 4.70 each time. The pKd was no more than 4.70 in assay [7] (setting [34]); no more than 4.70 in [8] (setting [34]); no more than 4.70 in assay [9] (setting [34]); no more than 4.70 in [10] (setting [34]); 6.18 in assay [11] (setting [34]); 6.00 in assay [12] (setting [34]). Further, the pKd in assay [13] (setting [34]), in assay [14] (setting [34]) and in assay [15] (setting [34]) was no more than 4.70 in each case.
As for YQNHGFVSF, the results for the pKd in [24], in assay [25] and in assay [16] were 6.45, 9.76 and 8.61, respectively.
On to TPPVDRMAV, for which the pKd in assay [1] (setting [35]), in assay [2] (setting [35]), in assay [3] (setting [35]), in assay [4] (setting [35]), in assay [28] (setting [35]) and in assay [5] (setting [35]) was no more than 4.70 throughout. Also, the pKd in assay [6] (setting [35]) is no more than 4.70; in [7] (setting [35]), no more than 4.70; in assay [8] (setting [36]), 6.54; in assay [9] (setting [36]), 5.04; in assay [11] (setting [35]), no more than 4.70; in assay [12] (setting [36]), 5.97. Moreover, the pKd in assay [13] (setting [35]), in [14] (setting [35]) and in assay [15] (setting [35]) was no more than 4.70 in each case.
